System: peptide library, one residue held at a place counted from the Y acceptor
Assay: relative phosphorylation of the sub-library (ratio to the mean residue at this position); higher = residue favoured
How it was run: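 Within 384-well plates, purified recombinant kinases phosphorylated biotinylated Tyr-centred peptide library mixtures over 90 min using 50 μM ATP spiked with γ-32P-ATP; each mixture fixed one residue at one position from −5 to +5. Streptavidin membrane capture, rinsing, phosphorimaging and ImageQuant gave the intensities. These were normalized per position to the sum of the 18 randomized residues (16 for the Ser/Thr-free library) and multiplied by that number.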

EPHB4, construct: aa561-end, human, sequence (P54760 561-987, looked up): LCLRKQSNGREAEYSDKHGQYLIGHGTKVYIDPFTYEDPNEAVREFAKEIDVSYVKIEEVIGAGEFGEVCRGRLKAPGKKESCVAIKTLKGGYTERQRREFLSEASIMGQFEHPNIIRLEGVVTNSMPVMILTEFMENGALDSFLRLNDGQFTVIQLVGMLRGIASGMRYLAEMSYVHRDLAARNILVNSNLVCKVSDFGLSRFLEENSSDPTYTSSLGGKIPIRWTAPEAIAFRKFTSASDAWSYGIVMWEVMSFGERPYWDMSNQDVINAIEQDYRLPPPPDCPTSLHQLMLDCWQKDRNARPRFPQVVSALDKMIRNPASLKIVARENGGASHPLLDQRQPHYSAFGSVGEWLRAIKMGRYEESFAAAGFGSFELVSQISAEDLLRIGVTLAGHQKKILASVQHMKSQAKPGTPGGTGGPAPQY

EPHB4, construct: aa561-end, human (from UniProt P54760)
relative phosphorylation
Conditions	at +1	at +2	at +3	at +4	at +5	at -1	at -2	at -3	at -4	at -5
A fixed	2.01	0.93	0.981	0.836	0.988	0.59	1.26	0.954	1.17	1.05
D fixed	0.98	0.854	0.481	0.969	1.18	2.38	1.15	1.32	1.09	1.12
E fixed	2.09	1.19	0.409	1	0.934	1.38	1.07	1.52	1.14	0.945
F fixed	0.651	1.15	1.06	1.01	0.879	0.933	0.628	1.16	0.904	0.895
G fixed	1.03	0.54	0.694	1.16	1.22	0.36	1.17	0.986	1.39	1.38
H fixed	0.482	0.782	1.08	1.16	0.89	0.577	0.911	0.93	0.941	0.998
I fixed	1.02	1.19	1.47	0.663	0.675	1.91	0.772	0.996	0.965	0.775
K fixed	0.404	0.755	0.464	0.907	0.959	0.357	0.99	0.674	0.953	1.05
L fixed	0.774	0.955	1.49	0.792	0.77	1.77	0.834	0.82	0.797	0.838
M fixed	1.36	0.914	1.25	0.969	0.934	0.806	0.722	0.8	0.962	0.949
N fixed	0.489	1.05	0.698	0.947	1.03	2.07	1	1.13	0.889	1.03
P fixed	0.319	0.821	1.46	1.29	1.45	0.513	1.6	1.21	1.35	1.27
Q fixed	1.35	1.03	0.884	1.04	1.02	0.501	1.13	0.863	1.12	0.907
R fixed	0.455	1.08	0.624	1.14	1.13	0.389	1	0.871	0.989	1.17
S fixed	1.05	0.937	0.945	0.974	1.18	0.572	1.57	1	0.915	0.953
T fixed	0.833	1.1	0.832	0.984	1.05	1.08	0.863	0.843	0.696	0.905
V fixed	1.75	1.37	1.73	0.792	0.716	1.04	0.758	0.825	0.874	0.8
W fixed	0.957	1.36	1.45	1.36	0.991	0.773	0.567	1.1	0.859	0.97
pThr fixed	1.45	1.7	0.467	0.855	0.682	1.61	0.917	0.96	0.855	0.898
pTyr fixed	1.36	3.59	0.719	0.965	1.04	2.25	0.931	1.17	1.08	1.11
